Patent US20220003777

Columns and labels:
[1] = target: T1, C1 esterase inhibitor, human plasma-derived, P05155
T1 chain: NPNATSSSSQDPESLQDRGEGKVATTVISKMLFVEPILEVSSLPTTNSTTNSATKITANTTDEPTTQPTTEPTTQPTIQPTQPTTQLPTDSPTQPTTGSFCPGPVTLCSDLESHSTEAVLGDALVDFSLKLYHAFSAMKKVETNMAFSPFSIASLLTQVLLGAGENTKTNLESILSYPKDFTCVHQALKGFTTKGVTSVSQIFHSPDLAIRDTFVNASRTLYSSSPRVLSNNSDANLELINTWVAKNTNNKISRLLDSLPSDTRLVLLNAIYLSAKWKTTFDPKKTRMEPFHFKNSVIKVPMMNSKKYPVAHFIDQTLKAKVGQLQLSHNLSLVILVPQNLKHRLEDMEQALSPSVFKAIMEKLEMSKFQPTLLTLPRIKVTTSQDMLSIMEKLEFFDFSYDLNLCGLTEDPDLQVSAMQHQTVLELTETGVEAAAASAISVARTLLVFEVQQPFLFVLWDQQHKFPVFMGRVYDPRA

[2] = target: T2, CD43, recombinant, P16150
T2 chain: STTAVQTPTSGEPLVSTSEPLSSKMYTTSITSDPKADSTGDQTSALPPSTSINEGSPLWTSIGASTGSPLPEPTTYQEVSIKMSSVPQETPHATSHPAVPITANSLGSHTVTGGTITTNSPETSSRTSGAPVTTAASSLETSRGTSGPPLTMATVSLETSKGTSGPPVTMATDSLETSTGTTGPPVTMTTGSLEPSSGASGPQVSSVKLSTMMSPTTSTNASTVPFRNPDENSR

[3] = target: T3, Syncam-1, recombinant, Q9BY67
T3 chain: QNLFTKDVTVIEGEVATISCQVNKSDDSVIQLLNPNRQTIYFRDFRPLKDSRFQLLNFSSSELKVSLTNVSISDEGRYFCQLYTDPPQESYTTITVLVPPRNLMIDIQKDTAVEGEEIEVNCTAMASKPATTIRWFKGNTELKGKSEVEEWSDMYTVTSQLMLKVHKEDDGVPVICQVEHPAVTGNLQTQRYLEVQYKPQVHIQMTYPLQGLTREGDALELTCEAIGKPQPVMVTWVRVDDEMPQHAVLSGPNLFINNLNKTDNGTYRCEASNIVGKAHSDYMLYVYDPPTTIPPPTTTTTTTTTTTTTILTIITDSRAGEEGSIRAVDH

[4] = target: T4, CD45, recombinant, P08575
T4 chain: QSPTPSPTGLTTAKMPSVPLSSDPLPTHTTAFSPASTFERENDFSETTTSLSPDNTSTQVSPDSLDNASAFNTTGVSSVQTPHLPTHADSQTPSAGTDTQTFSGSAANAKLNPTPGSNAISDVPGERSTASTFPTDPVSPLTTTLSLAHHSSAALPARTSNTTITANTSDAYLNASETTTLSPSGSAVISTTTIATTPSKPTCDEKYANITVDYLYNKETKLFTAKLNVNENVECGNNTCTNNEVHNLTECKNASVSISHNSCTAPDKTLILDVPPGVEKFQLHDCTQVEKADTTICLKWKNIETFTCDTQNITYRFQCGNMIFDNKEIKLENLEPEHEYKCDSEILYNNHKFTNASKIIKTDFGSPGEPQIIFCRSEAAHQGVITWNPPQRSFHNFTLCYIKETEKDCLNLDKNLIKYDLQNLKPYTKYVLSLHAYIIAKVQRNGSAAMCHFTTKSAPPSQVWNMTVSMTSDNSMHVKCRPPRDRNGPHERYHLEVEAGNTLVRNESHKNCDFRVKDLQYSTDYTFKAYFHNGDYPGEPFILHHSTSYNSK

[5] = target: bovine serum albumin, P02769
bovine serum albumin, P02769, sequence (P02769 25-607): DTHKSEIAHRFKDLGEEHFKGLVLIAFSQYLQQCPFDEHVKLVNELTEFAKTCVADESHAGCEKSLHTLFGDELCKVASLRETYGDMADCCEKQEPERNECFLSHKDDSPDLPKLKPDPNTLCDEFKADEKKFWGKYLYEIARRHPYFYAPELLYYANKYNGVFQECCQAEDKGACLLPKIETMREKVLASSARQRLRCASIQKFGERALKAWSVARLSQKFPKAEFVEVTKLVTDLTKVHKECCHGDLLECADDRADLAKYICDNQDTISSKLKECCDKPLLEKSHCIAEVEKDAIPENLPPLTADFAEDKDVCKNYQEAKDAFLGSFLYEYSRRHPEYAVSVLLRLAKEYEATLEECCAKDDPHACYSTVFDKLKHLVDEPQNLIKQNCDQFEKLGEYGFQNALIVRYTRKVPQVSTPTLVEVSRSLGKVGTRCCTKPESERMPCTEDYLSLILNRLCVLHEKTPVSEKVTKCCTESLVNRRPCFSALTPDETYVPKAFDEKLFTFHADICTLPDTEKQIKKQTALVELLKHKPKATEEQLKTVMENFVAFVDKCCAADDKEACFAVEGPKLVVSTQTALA

[6] = target: T5, PSGL-1, recombinant, Q14242
T5 chain: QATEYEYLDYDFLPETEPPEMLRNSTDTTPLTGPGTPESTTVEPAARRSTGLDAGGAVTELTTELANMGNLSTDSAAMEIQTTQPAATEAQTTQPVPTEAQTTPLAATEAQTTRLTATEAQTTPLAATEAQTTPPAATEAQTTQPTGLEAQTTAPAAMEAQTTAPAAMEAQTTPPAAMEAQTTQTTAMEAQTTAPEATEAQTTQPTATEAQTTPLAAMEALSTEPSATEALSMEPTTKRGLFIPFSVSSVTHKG

[7] = target: T6, recombinant human MUC16, Q8WXI7
T6 chain: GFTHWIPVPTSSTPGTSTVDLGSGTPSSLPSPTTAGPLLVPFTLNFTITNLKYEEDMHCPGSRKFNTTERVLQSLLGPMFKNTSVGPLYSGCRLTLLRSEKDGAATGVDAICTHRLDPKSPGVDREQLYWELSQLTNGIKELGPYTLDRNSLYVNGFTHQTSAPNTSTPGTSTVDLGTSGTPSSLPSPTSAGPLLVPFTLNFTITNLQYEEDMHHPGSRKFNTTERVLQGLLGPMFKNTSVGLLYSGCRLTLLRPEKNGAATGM

[8] = target: MUC16, native human (cell lines, cell lysates and supernatants, cancer patient ascites), Q8WXI7
[9] = target: T7, podocalyxin, recombinant, O00592
T7 chain: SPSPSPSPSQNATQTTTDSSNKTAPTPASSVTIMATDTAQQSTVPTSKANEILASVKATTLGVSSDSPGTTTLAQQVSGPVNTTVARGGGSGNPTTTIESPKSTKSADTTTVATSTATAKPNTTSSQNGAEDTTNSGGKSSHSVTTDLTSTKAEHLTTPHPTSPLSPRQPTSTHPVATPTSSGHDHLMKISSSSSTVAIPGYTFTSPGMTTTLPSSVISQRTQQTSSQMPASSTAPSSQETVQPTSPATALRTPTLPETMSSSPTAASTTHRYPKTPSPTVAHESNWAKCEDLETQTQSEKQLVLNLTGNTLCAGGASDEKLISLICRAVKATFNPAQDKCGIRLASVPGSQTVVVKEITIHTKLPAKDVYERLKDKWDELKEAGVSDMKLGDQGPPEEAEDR

[10] = target: T8, synthetic glycopeptide RPPIT*QSSL
T8 chain: RPPITQSSL

fetuin, P12763 = target: T9, fetuin, P12763
T9 chain: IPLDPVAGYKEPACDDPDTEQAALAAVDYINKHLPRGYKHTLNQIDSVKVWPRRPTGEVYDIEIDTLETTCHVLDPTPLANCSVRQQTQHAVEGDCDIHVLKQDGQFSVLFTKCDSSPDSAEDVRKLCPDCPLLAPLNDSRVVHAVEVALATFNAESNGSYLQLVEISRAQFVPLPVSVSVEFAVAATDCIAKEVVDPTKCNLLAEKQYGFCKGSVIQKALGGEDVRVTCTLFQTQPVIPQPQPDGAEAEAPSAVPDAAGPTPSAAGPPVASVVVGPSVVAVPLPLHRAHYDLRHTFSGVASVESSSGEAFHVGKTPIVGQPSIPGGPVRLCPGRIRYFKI

B1: Secreted Protease of C1 Esterase Inhibitor (StcE), recombinant N-terminal His-tagged (protein)
chain: ADNNSAIYFNTSQPINDLQGSLAAEVKFAQSQILPAHPKEGDSQPHLTSLRKSLLLVRPVKADDKTPVQVEARDDNNKILGTLTLYPPSSLPDTIYHLDGVPEGGIDFTPHNGTKKIINTVAEVNKLSDASGSSIHSHLTNNALVEIHTANGRWVRDIYLPQGPDLEGKMVRFVSSAGYSSTVFYGDRKVTLSVGNTLLFKYVNGQWFRSGELENNRITYAQHIWSAELPAHWIVPGLNLVIKQGNLSGRLNDIKIGAPGELLLHTIDIGMLTTPRDRFDFAKDKEAHREYFQTIPVSRMIVNNYAPLHLKEVMLPTGELLTDMDPGNGGWHSGTMRQRIGKELVSHGIDNANYGLNSTAGLGENSHPYVVAQLAAHNSRGNYANGIQVHGGSGGGGIVTLDSTLGNEFSHEVGHNYGLGHYVDGFKGSVHRSAENNNSTWGWDGDKKRFIPNFYPSQTNEKSCLNNQCQEPFDGHKFGFDAMAGGSPFSAANRFTMYTPNSSAIIQRFFENKAVFDSRSSTGFSKWNADTQEMEPYEHTIDRAEQITASVNELSESKMAELMAEYAVVKVHMWNGNWTRNIYIPTASADNRGSILTINHEAGYNSYLFINGDEKVVSQGYKKSFVSDGQFWKERDVVDTREARKPEQFGVPVTTLVGYYDPEGTLSSYIYPAMYGAYGFTYSDDSQNLSDNDCQLQVDTKEGQLRFRLANHRANNTVMNKFHINVPTESQPTQATLVCNNKILDTKSLTPAPEGLTYTVNGQALPAKENEGCIVSVNSGKRYCLPVGQRSGYSLPDWIVGQEVYVDSGAKAKVLLSDWDNLSYNRIGEFVGNVNPADMKKVKAWNGQYLDFSKPRSMRVVYK
In the case of B1, the “cleavage of substrate (SDS-PAGE, glycoprotein stain)” value [1] is reported as “active against C11NH”, the “cleavage of substrate (gel shift)” value [2] is reported as “cleaved all tested mucin-like glycoproteins” and the “cleavage of substrate (gel shift)” value [3] is reported as “cleaved all tested mucin-like glycoproteins”. The “cleavage of substrate (gel shift)” value [4] was “cleaved all tested mucin-like glycoproteins”, the “cleavage of substrate (gel shift)” value [5] was “did not cleave” and the “cleavage of substrate (gel shift)” value [6] was “cleaved all tested mucin-like glycoproteins”. For the same protein, the “cleavage of substrate (gel shift)” value [7] was “cleaved all tested mucin-like glycoproteins”, the “cleavage in ascites fluid (anti-MUC16 Western blot)” value [8] was “dose-dependent decrease in apparent molecular weight” and the “cleavage of substrate (gel shift)” value [9] was “cleaved all tested mucin-like glycoproteins”. The “cleavage of synthetic glycopeptide (MS)” value [10] was “StcE cleaved a synthetic peptide containing a single GalNAc” and the “cleavage of substrate (gel shift)” value (fetuin, P12763) was “did not cleave”.
